# Results: the supplement of paper PMC9112550, “Optimization of the antimicrobial peptide Bac7 by deep mutational scanning” (BMC Biology, 2022)
# Tested on: Escherichia coli TOP10
# Assay: shrunken log2 fold change of peptide-encoding DNA abundance (4.5 h post-induction vs induction); higher = less antimicrobial activity (less host growth inhibition)
# Conditions: time post-induction: 4.5 h; library: site-saturation at positions 5, 18, 19, 20
# 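Further: peptides expressed intracellularly from a pBAD plasmid library in pooled LB shake-flask culture, induced with 0.3% L-arabinose, DNA abundance read by NGS, three biological replicates, DESeq2 with apeglm shrinkage.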
row,Sequence,shrunken log2 fold change
1,RRIRTRPPRLPRPRPRPGDRPRP,0.0976
2,RRIRWRPPRLPRPRPRPRIRPRP,0.0716
3,RRIRERPPRLPRPRPRPQQVPRP,-0.0841
4,RRIRNRPPRLPRPRPRPVRQPRP,0.0327
5,RRIRPRPPRLPRPRPRPPYMPRP,-0.288
6,RRIRTRPPRLPRPRPRPFVTPRP,-0.298
7,RRIRQRPPRLPRPRPRPNVTPRP,0.0508
8,RRIRNRPPRLPRPRPRPLPNPRP,-0.0288
9,RRIRYRPPRLPRPRPRPPWDPRP,0.128
10,RRIRDRPPRLPRPRPRPWHEPRP,-0.266
11,RRIRPRPPRLPRPRPRPWQCPRP,-0.0562
12,RRIRPRPPRLPRPRPRPCCWPRP,0.81
13,RRIRQRPPRLPRPRPRPPNDPRP,0.0155
14,RRIRWRPPRLPRPRPRPDAQPRP,1.48
15,RRIRARPPRLPRPRPRPTGTPRP,0.363
16,RRIRIRPPRLPRPRPRPLDKPRP,-0.141
17,RRIRDRPPRLPRPRPRPYWCPRP,0.0158
18,RRIRNRPPRLPRPRPRPECPPRP,0.012
19,RRIRDRPPRLPRPRPRPRHDPRP,0.0894
20,RRIRIRPPRLPRPRPRPNHLPRP,-0.844
21,RRIRCRPPRLPRPRPRPQIRPRP,-0.332
22,RRIRGRPPRLPRPRPRPFNKPRP,-0.158
23,RRIRSRPPRLPRPRPRPRYFPRP,-0.0823
24,RRIRQRPPRLPRPRPRPNYWPRP,-0.251
25,RRIRLRPPRLPRPRPRPHVQPRP,-0.528

row,Sequence,shrunken log2 fold change
1,RRIRTRPPRLPRPRPRPVRNPRP,0.509
2,RRIRSRPPRLPRPRPRPSHYPRP,-1.44
3,RRIRIRPPRLPRPRPRPCDEPRP,0.0357
4,RRIRDRPPRLPRPRPRPMRYPRP,0.104
5,RRIRRRPPRLPRPRPRPDKPPRP,0.583
6,RRIRKRPPRLPRPRPRPTNEPRP,0.387
7,RRIRRRPPRLPRPRPRPKHKPRP,0.339
8,RRIRNRPPRLPRPRPRPMIYPRP,-0.265
9,RRIRNRPPRLPRPRPRPWIPPRP,-0.536
10,RRIRSRPPRLPRPRPRPTYGPRP,-0.303
11,RRIRFRPPRLPRPRPRPEEGPRP,0.00408
12,RRIRFRPPRLPRPRPRPLLCPRP,-0.105
13,RRIRCRPPRLPRPRPRPMFDPRP,-0.246
14,RRIRERPPRLPRPRPRPSEQPRP,-0.0297
15,RRIRIRPPRLPRPRPRPNNYPRP,-0.996
16,RRIRQRPPRLPRPRPRPTKVPRP,-0.0676
17,RRIRLRPPRLPRPRPRPLEDPRP,-0.076
18,RRIRQRPPRLPRPRPRPEFTPRP,-0.0117
19,RRIRGRPPRLPRPRPRPWCDPRP,0.0715
20,RRIRHRPPRLPRPRPRPRFAPRP,0.0665
21,RRIRMRPPRLPRPRPRPQLPPRP,-0.105
22,RRIRNRPPRLPRPRPRPCQCPRP,-0.00992
23,RRIRQRPPRLPRPRPRPWIGPRP,-0.013
24,RRIRWRPPRLPRPRPRPQEAPRP,-0.00482
25,RRIRQRPPRLPRPRPRPHKRPRP,-0.218

row,Sequence,shrunken log2 fold change
1,RRIRQRPPRLPRPRPRPVDKPRP,-0.0881
2,RRIRMRPPRLPRPRPRPVNLPRP,-0.0198
3,RRIRARPPRLPRPRPRPQVYPRP,-0.174
4,RRIRVRPPRLPRPRPRPNMTPRP,-0.256
5,RRIRQRPPRLPRPRPRPQSQPRP,-0.159
6,RRIRLRPPRLPRPRPRPRSFPRP,-0.107
7,RRIRDRPPRLPRPRPRPRSEPRP,-0.0682
8,RRIRQRPPRLPRPRPRPQNVPRP,-0.0161
9,RRIRERPPRLPRPRPRPGDDPRP,-0.152
10,RRIRGRPPRLPRPRPRPSPTPRP,0.828
11,RRIRNRPPRLPRPRPRPCGPPRP,-0.0549
12,RRIRYRPPRLPRPRPRPAIFPRP,-0.0382
13,RRIRYRPPRLPRPRPRPMFYPRP,-1.04
14,RRIRLRPPRLPRPRPRPNIQPRP,-0.689
15,RRIRARPPRLPRPRPRPILVPRP,-0.122
16,RRIRFRPPRLPRPRPRPGFSPRP,-0.407
17,RRIRQRPPRLPRPRPRPGFFPRP,0.128
18,RRIRIRPPRLPRPRPRPHIHPRP,-0.811
19,RRIRWRPPRLPRPRPRPTFEPRP,0.13
20,RRIRYRPPRLPRPRPRPKIWPRP,-0.475
21,RRIRMRPPRLPRPRPRPAMNPRP,-0.00221
22,RRIRMRPPRLPRPRPRPKSRPRP,0.0662
23,RRIRARPPRLPRPRPRPCNFPRP,-0.478
24,RRIRWRPPRLPRPRPRPERIPRP,0.0766
25,RRIRHRPPRLPRPRPRPAESPRP,-0.218

row,Sequence,shrunken log2 fold change
1,RRIRSRPPRLPRPRPRPNLMPRP,-0.177
2,RRIRRRPPRLPRPRPRPGIVPRP,-0.0478
3,RRIRNRPPRLPRPRPRPVEQPRP,0.0207
4,RRIRERPPRLPRPRPRPNDNPRP,-0.882
5,RRIRNRPPRLPRPRPRPTEHPRP,0.141
6,RRIRMRPPRLPRPRPRPERDPRP,2.25
7,RRIRLRPPRLPRPRPRPFIMPRP,-0.79
8,RRIRERPPRLPRPRPRPPFYPRP,-0.367
9,RRIRWRPPRLPRPRPRPELKPRP,0.276
10,RRIRMRPPRLPRPRPRPRWRPRP,0.732
11,RRIRVRPPRLPRPRPRPLLSPRP,-0.08
12,RRIRARPPRLPRPRPRPAPTPRP,0.838
13,RRIRMRPPRLPRPRPRPHDKPRP,0.0701
14,RRIRDRPPRLPRPRPRPVCSPRP,0.222
15,RRIRPRPPRLPRPRPRPPAMPRP,0.447
16,RRIRCRPPRLPRPRPRPTYLPRP,-0.292
17,RRIRMRPPRLPRPRPRPMDIPRP,0.468
18,RRIRPRPPRLPRPRPRPKRIPRP,-0.155
19,RRIRTRPPRLPRPRPRPVSAPRP,0.252
20,RRIRFRPPRLPRPRPRPNDKPRP,-0.32
21,RRIRLRPPRLPRPRPRPINGPRP,0.015
22,RRIRCRPPRLPRPRPRPFVSPRP,-0.265
23,RRIRLRPPRLPRPRPRPFPLPRP,-0.0787
24,RRIRMRPPRLPRPRPRPLTPPRP,1.13
25,RRIRKRPPRLPRPRPRPTDNPRP,0.219

row,Sequence,shrunken log2 fold change
1,RRIRHRPPRLPRPRPRPQCWPRP,-0.112
2,RRIRFRPPRLPRPRPRPDMAPRP,-0.108
3,RRIRCRPPRLPRPRPRPDAMPRP,0.0677
4,RRIRIRPPRLPRPRPRPYLWPRP,-0.156
5,RRIRVRPPRLPRPRPRPGWHPRP,0.132
6,RRIRGRPPRLPRPRPRPPSCPRP,0.654
7,RRIRVRPPRLPRPRPRPDEHPRP,0.0107
8,RRIRARPPRLPRPRPRPTQYPRP,0.116
9,RRIRTRPPRLPRPRPRPPKDPRP,-0.187
10,RRIRQRPPRLPRPRPRPGTVPRP,-0.00591
11,RRIRDRPPRLPRPRPRPIHVPRP,-0.554
12,RRIRWRPPRLPRPRPRPAGEPRP,0.432
13,RRIRTRPPRLPRPRPRPFWVPRP,-0.0427
14,RRIRGRPPRLPRPRPRPFRDPRP,0.0814
15,RRIRNRPPRLPRPRPRPDIQPRP,-0.0597
16,RRIRIRPPRLPRPRPRPGFCPRP,0.135
17,RRIRGRPPRLPRPRPRPQSSPRP,0.000815
18,RRIRLRPPRLPRPRPRPGQLPRP,-0.0554
19,RRIRMRPPRLPRPRPRPDLWPRP,2.21
20,RRIRYRPPRLPRPRPRPAGYPRP,0.0815
21,RRIRNRPPRLPRPRPRPLNYPRP,-0.29
22,RRIRERPPRLPRPRPRPDYWPRP,-0.276
23,RRIRWRPPRLPRPRPRPIMAPRP,0.14
24,RRIRQRPPRLPRPRPRPFVGPRP,-0.237
25,RRIRQRPPRLPRPRPRPCLLPRP,-2.33

row,Sequence,shrunken log2 fold change
1,RRIRRRPPRLPRPRPRPRFWPRP,0.652
2,RRIRFRPPRLPRPRPRPCPDPRP,-0.45
3,RRIRMRPPRLPRPRPRPTRNPRP,0.212
4,RRIRCRPPRLPRPRPRPHNPPRP,-0.377
5,RRIRCRPPRLPRPRPRPGFTPRP,-0.131
6,RRIRGRPPRLPRPRPRPLFWPRP,0.544
7,RRIRLRPPRLPRPRPRPEAKPRP,0.0204
8,RRIRVRPPRLPRPRPRPCCQPRP,-0.19
9,RRIRDRPPRLPRPRPRPFHTPRP,-0.569
10,RRIRRRPPRLPRPRPRPCAEPRP,0.393
11,RRIRHRPPRLPRPRPRPGTRPRP,-0.13
12,RRIRKRPPRLPRPRPRPNHCPRP,0.0144
13,RRIRKRPPRLPRPRPRPEVFPRP,0.403
14,RRIRIRPPRLPRPRPRPRFLPRP,-0.216
15,RRIRRRPPRLPRPRPRPRDNPRP,0.15
16,RRIRERPPRLPRPRPRPAGHPRP,0.0849
17,RRIRQRPPRLPRPRPRPTKAPRP,0.0785
18,RRIRDRPPRLPRPRPRPQFPPRP,0.0234
19,RRIRNRPPRLPRPRPRPVMTPRP,0.0556
20,RRIRRRPPRLPRPRPRPVCNPRP,0.181
21,RRIRQRPPRLPRPRPRPWAAPRP,0.0922
22,RRIRLRPPRLPRPRPRPQLTPRP,0.103
23,RRIRMRPPRLPRPRPRPEDPPRP,1.02
24,RRIRVRPPRLPRPRPRPYIIPRP,-0.519
25,RRIRRRPPRLPRPRPRPWQRPRP,0.188
